From patent US20150056209A1, “PEPTIDE MIMOTOPES TO OXIDATION SPECIFIC EPITOPES” (The Regents of the University of California, priority 2012, published 2015)
Bridges are numbered along the chain shown (N, C = ends). Where no end group is shown, it is not given here.

B1: phage clone Ca2 (peptide, not shown: large carriers)
chain: ACNNSKMRLCGGGS
modifications: disulfide 2-10; also: C-terminus fused to phage pIII
B2: phage clone Ca6 (peptide, not shown: large carriers)
chain: ACNNSXMPLCGGGS
modifications: disulfide 2-10; not fully specified; X: residue not identified in the source
B3: phage clone A34 (peptide, not shown: large carriers)
chain: NSRTNNSQWTFQGGGS
B4: phage clones M6, G10 (peptide, not shown: large carriers)
chain: HRMTNNAMDVFMGGGS
B5: phage clone Ca3 (peptide, not shown: large carriers)
chain: ACQNSHMPLCGGGS
modifications: disulfide 2-10; also: C-terminus fused to phage pIII
B6: phage clone A31 (peptide, not shown: large carriers)
chain: QNMNNWTLASIMGGGS
B7: phage clones Ca1, Ca7 (peptide, not shown: large carriers)
chain: ACNNWNMPLCGGGS
modifications: disulfide 2-10; also: C-terminus fused to phage pIII
B8: phage clone A38 (peptide, not shown: large carriers)
chain: HRMTNAMHHFMGGGGS
B9: phage clone A40 (peptide, not shown: large carriers)
chain: NSWTNASLSTFHGGGS
B10: phage clone Cb4 (peptide, not shown: large carriers)
chain: ACNNWKMPLCGGGS
modifications: disulfide 2-10; also: C-terminus fused to phage pIII
B11: phage clone A32 (peptide, not shown: large carriers)
chain: HSWSNYWGHQHAGGGS
B12: phage clone A33 (peptide, not shown: large carriers)
chain: HQLSNKDEQTPQGGGS
B13: phage clone M8 (peptide, not shown: large carriers)
chain: TAVTNSMMERLWGGGS
B14: phage clones M10, G8 (peptide, not shown: large carriers)
chain: HSLSNIQMATLAGGGS
B15: phage clone M30 (peptide, not shown: large carriers)
chain: EVMNNWTLASIMGGGS
B16: phage clone Cb10 (peptide, not shown: large carriers)
chain: ACNNSNMPLCGGGS
modifications: disulfide 2-10; also: C-terminus fused to phage pIII

biological target: LRO4; assay: phage ELISA, coated LRO4

Row | Binder | OD (binding of phages to LR04) [OD]
1 | B1 | 0.8
2 | B2 | 0.7
3 | B3 | 0.82
4 | B4 | 1.56
5 | B5 | 0.5
6 | B6 | 0.85
7 | B7 | 0.8
8 | B8 | 0.64
9 | B9 | 0.89
10 | B10 | 0.6
11 | B11 | 0.98
12 | B12 | 0.63
13 | B13 | 1.57
14 | B14 | 1.16
15 | B15 | 1.04
16 | B16 | 0.6

biological target: LRO4; assay: competitive phage ELISA, coated LRO4; competitor MDA-LDL 50 µg/mL

Row | Binder | B/Bo (inhibition of binding to LR04) [B/Bo]
17 | B1 | 0.12
18 | B2 | 0.04
19 | B3 | 0.11
20 | B4 | 0.2
21 | B5 | 0.04
22 | B6 | 0.25
23 | B7 | 0.04
24 | B8 | 0.1
25 | B9 | 0.1
26 | B10 | 0.02
27 | B11 | 0.18
28 | B12 | 0.14
29 | B13 | 0.2
30 | B14 | 0.1
31 | B15 | 0.06
32 | B16 | 0.02

biological target: control isotype anti-KLH IgM Ab (C48-6; BD Bioscience-Pharmingen); assay: phage ELISA, coated control IgM

Row | Binder | OD (binding of phages to control IgM) [OD]
33 | B1 | 0.2
34 | B2 | 0
35 | B3 | 0.11
36 | B4 | 0.03
37 | B5 | 0.1
38 | B6 | 0.08
39 | B7 | 0.1
40 | B8 | 0.21
41 | B9 | 0.04
42 | B10 | 0.1
43 | B11 | 0.02
44 | B12 | 0.05
45 | B13 | 0.04
46 | B14 | 0.03
47 | B15 | 0.03
48 | B16 | 0.2
